Reference: the Human Domainome abundance scans (Beltran et al. 2025)

B1: Arginine-glutamic acid dipeptide repeats protein, residues 502 to 543; numbered along this chain, Q9P2R6 (parent)
chain: LKGYACRHCFTTTSKDWHHGGRENILLCTDCRIHFKKYGELP

Variants of: B1
Assay: abundance fitness (aPCA) (normalised: wild type 0, dead -1); higher = more abundant; growth selection in yeast, the domain comes from the species named
Conditions: Homo sapiens

Abundance fitness, by site and new letter:
L41: N -0.366 | P -0.253 | A -0.317 | M -0.126 | C -0.223 | T -0.044 | I -0.46 | G -0.276 | K -0.309 | E -0.301 | Q -0.327 | H -0.416 | S -0.325 | D -0.245 | F 0.271
F35: R -0.236 | C -0.191 | M -0.163 | P -0.422 | H -0.015 | G -0.287 | W 0.001 | K -0.091 | D -0.112 | A -0.089 | S -0.187 | L -0.057 | Q -0.058 | N -0.245
K36: C -0.134 | R -0.029 | M -0.095 | N 0.248 | V -0.038 | Q 0.123 | W -0.147 | F 0.294 | E -0.012 | P -0.363 | S 0.008 | L -0.068 | A 0.081 | G 0.079 | T 0.009
K37: V -0.149 | T -0.032 | L -0.194 | W -0.135 | R -0.026 | Y -0.159 | Q -0.027 | D -0.013 | H -0.182 | G -0.184 | E -0.04 | C -0.168 | S -0.052 | P -0.278 | N -0.09 | A -0.034 | M -0.089
Y38: Q -0.062 | W -0.074 | T 0.123 | A -0.077 | G -0.185 | V 0.022 | I -0.298 | K -0.002 | P -0.215 | F -0.069 | E 0.018 | H -0.111 | C 0.059 | L -0.123 | R -0.084 | S -0.017 | M -0.117 | D -0.114 | N 0.083
G39: F -0.393 | D 0.053 | T -0.291 | C -0.142 | I -0.726 | W -0.301 | L -0.249 | V -0.42 | M -0.328 | N 0.027 | A -0.108 | R -0.118 | Q -0.082 | S -0.171 | P -0.478 | E -0.078 | Y -0.259
I33: A 0.079 | D 0.117 | C 0.103 | F -0.079 | Y -0.01 | R 0.026 | T 0.042 | Q 0.074 | G 0.104 | W -0.059 | S 0.017 | K -0.011 | H 0.017 | E 0.081 | V 0.068 | L 0.074 | M -0.007 | P -0.465
H34: P -0.805 | C 0.05 | Y -0.102 | I -0.472 | W -0.001 | G -0.193 | L -0.282 | T -0.204 | F -0.218 | S -0.04 | D -0.32 | A -0.033 | V -0.3 | Q -0.098 | E -0.242 | R -0.258 | M -0.204
E40: L -0.122 | D -0.101 | P -0.521 | Y -0.143 | V -0.036 | C -0.073 | G -0.136 | M -0.176 | S -0.077 | Q -0.012 | K -0.044 | H -0.11 | F -0.472 | I -0.095 | T -0.078 | N -0.116 | A -0.066 | W -0.265
R32: P -0.612 | C -0.114 | L -0.058 | K -0.137 | N -0.063 | T -0.088 | E -0.045 | F 0.021 | S -0.013 | Q -0.035 | A -0.011 | G -0.029 | H -0.037 | V -0.14 | M -0.017 | D -0.001 | W 0.053
